# In patent publication US20260049138A1 (Chugai, published 2026):
# B1: GLS3000 S25E one-arm antibody (antibody, human IgG1, kappa, L234A L235A, N297A, name in Kabat numbering)
# heavy: QVQLVESGGGVVQPGRSLRLSCAASGFTFSNAWMHWVRQAPGKGLEWVAQIKAKSNNYATYYAESVKGRFTISRDDSKNSLYLQMNSLKTEDTAVYYCRYVHYGAYYGVDAWGQGTTVTVSSASTKGPSVFPLAPSSKSTSGGTAALGCLVKDYFPEPVTVSWNSGALTSGVHTFPAVLQSSGLYSLSSVVTVPSSSLGTQTYICNVNHKPSNTKVDKKVEPKSCDKTHTCPPCPAPEAAGGPSVFLFPPKPKDTLMISRTPEVTCVVVDVSHEDPEVKFNWYVDGVEVHNAKTKPREEQYASTYRVVSVLTVLHQDWLNGKEYKCKVSNKALPAPIEKTISKAKGQPREPQVYTLPPSRCELTKNQVSLSCAVKGFYPSDIAVEWESNGQPENNYKTTPPVLDSDGSFFLVSKLTVDKSRWQQGNVFSCSVMHEALHNHYTQKSLSLSPDYKDDDDK
# chain: EPKSSDKTHTCPPCPAPELLGGPSVFLFPPKPKDTLMISRTPEVTCVVVDVSHEDPEVKFNWYVDGVEVHNAKTKPREEQYNSTYRVVSVLTVLHQDWLNGKEYKCKVSNKALPAPIEKTISKAKGQPREPQVCTLPPSRDELTKNQVSLWCLVKGFYPSDIAVEWESNGQPENNYKTTPPVLDSDGSFFLYSKLTVDKSRWQQGNVFSCSVMHEALHNRYTQKSLSLSP
# light: DIVMTQSPLSLPVTPGEPASISCRESQSLVHSNRNTYLHWYQQKPGQAPRLLIYKVSNRFSGVPDRFSGSGSGTDFTLKISRVEAEDVGVYYCGQGTQVPYTFGQGTKLEIKRTVAAPSVFIFPPSDEQLKSGTASVVCLLNNFYPREAKVQWKVDNALQSGNSQESVTEQDSKDSTYSLSSTLTLSKADYEKHKVYACEVTHQGLSSPVTKSFNRGEC
# B2: GLS3000 S25T one-arm antibody (antibody, human IgG1, kappa, L234A L235A, N297A, name in Kabat numbering)
# heavy: QVQLVESGGGVVQPGRSLRLSCAASGFTFSNAWMHWVRQAPGKGLEWVAQIKAKSNNYATYYAESVKGRFTISRDDSKNSLYLQMNSLKTEDTAVYYCRYVHYGAYYGVDAWGQGTTVTVSSASTKGPSVFPLAPSSKSTSGGTAALGCLVKDYFPEPVTVSWNSGALTSGVHTFPAVLQSSGLYSLSSVVTVPSSSLGTQTYICNVNHKPSNTKVDKKVEPKSCDKTHTCPPCPAPEAAGGPSVFLFPPKPKDTLMISRTPEVTCVVVDVSHEDPEVKFNWYVDGVEVHNAKTKPREEQYASTYRVVSVLTVLHQDWLNGKEYKCKVSNKALPAPIEKTISKAKGQPREPQVYTLPPSRCELTKNQVSLSCAVKGFYPSDIAVEWESNGQPENNYKTTPPVLDSDGSFFLVSKLTVDKSRWQQGNVFSCSVMHEALHNHYTQKSLSLSPDYKDDDDK
# chain: EPKSSDKTHTCPPCPAPELLGGPSVFLFPPKPKDTLMISRTPEVTCVVVDVSHEDPEVKFNWYVDGVEVHNAKTKPREEQYNSTYRVVSVLTVLHQDWLNGKEYKCKVSNKALPAPIEKTISKAKGQPREPQVCTLPPSRDELTKNQVSLWCLVKGFYPSDIAVEWESNGQPENNYKTTPPVLDSDGSFFLYSKLTVDKSRWQQGNVFSCSVMHEALHNRYTQKSLSLSP
# light: DIVMTQSPLSLPVTPGEPASISCRTSQSLVHSNRNTYLHWYQQKPGQAPRLLIYKVSNRFSGVPDRFSGSGSGTDFTLKISRVEAEDVGVYYCGQGTQVPYTFGQGTKLEIKRTVAAPSVFIFPPSDEQLKSGTASVVCLLNNFYPREAKVQWKVDNALQSGNSQESVTEQDSKDSTYSLSSTLTLSKADYEKHKVYACEVTHQGLSSPVTKSFNRGEC
# B3: GLS3000 S25I one-arm antibody (antibody, human IgG1, kappa, L234A L235A, N297A, name in Kabat numbering)
# heavy: QVQLVESGGGVVQPGRSLRLSCAASGFTFSNAWMHWVRQAPGKGLEWVAQIKAKSNNYATYYAESVKGRFTISRDDSKNSLYLQMNSLKTEDTAVYYCRYVHYGAYYGVDAWGQGTTVTVSSASTKGPSVFPLAPSSKSTSGGTAALGCLVKDYFPEPVTVSWNSGALTSGVHTFPAVLQSSGLYSLSSVVTVPSSSLGTQTYICNVNHKPSNTKVDKKVEPKSCDKTHTCPPCPAPEAAGGPSVFLFPPKPKDTLMISRTPEVTCVVVDVSHEDPEVKFNWYVDGVEVHNAKTKPREEQYASTYRVVSVLTVLHQDWLNGKEYKCKVSNKALPAPIEKTISKAKGQPREPQVYTLPPSRCELTKNQVSLSCAVKGFYPSDIAVEWESNGQPENNYKTTPPVLDSDGSFFLVSKLTVDKSRWQQGNVFSCSVMHEALHNHYTQKSLSLSPDYKDDDDK
# chain: EPKSSDKTHTCPPCPAPELLGGPSVFLFPPKPKDTLMISRTPEVTCVVVDVSHEDPEVKFNWYVDGVEVHNAKTKPREEQYNSTYRVVSVLTVLHQDWLNGKEYKCKVSNKALPAPIEKTISKAKGQPREPQVCTLPPSRDELTKNQVSLWCLVKGFYPSDIAVEWESNGQPENNYKTTPPVLDSDGSFFLYSKLTVDKSRWQQGNVFSCSVMHEALHNRYTQKSLSLSP
# light: DIVMTQSPLSLPVTPGEPASISCRISQSLVHSNRNTYLHWYQQKPGQAPRLLIYKVSNRFSGVPDRFSGSGSGTDFTLKISRVEAEDVGVYYCGQGTQVPYTFGQGTKLEIKRTVAAPSVFIFPPSDEQLKSGTASVVCLLNNFYPREAKVQWKVDNALQSGNSQESVTEQDSKDSTYSLSSTLTLSKADYEKHKVYACEVTHQGLSSPVTKSFNRGEC
# B4: GLS3000 S25P one-arm antibody (antibody, human IgG1, kappa, L234A L235A, N297A, name in Kabat numbering)
# heavy: QVQLVESGGGVVQPGRSLRLSCAASGFTFSNAWMHWVRQAPGKGLEWVAQIKAKSNNYATYYAESVKGRFTISRDDSKNSLYLQMNSLKTEDTAVYYCRYVHYGAYYGVDAWGQGTTVTVSSASTKGPSVFPLAPSSKSTSGGTAALGCLVKDYFPEPVTVSWNSGALTSGVHTFPAVLQSSGLYSLSSVVTVPSSSLGTQTYICNVNHKPSNTKVDKKVEPKSCDKTHTCPPCPAPEAAGGPSVFLFPPKPKDTLMISRTPEVTCVVVDVSHEDPEVKFNWYVDGVEVHNAKTKPREEQYASTYRVVSVLTVLHQDWLNGKEYKCKVSNKALPAPIEKTISKAKGQPREPQVYTLPPSRCELTKNQVSLSCAVKGFYPSDIAVEWESNGQPENNYKTTPPVLDSDGSFFLVSKLTVDKSRWQQGNVFSCSVMHEALHNHYTQKSLSLSPDYKDDDDK
# chain: EPKSSDKTHTCPPCPAPELLGGPSVFLFPPKPKDTLMISRTPEVTCVVVDVSHEDPEVKFNWYVDGVEVHNAKTKPREEQYNSTYRVVSVLTVLHQDWLNGKEYKCKVSNKALPAPIEKTISKAKGQPREPQVCTLPPSRDELTKNQVSLWCLVKGFYPSDIAVEWESNGQPENNYKTTPPVLDSDGSFFLYSKLTVDKSRWQQGNVFSCSVMHEALHNRYTQKSLSLSP
# light: DIVMTQSPLSLPVTPGEPASISCRPSQSLVHSNRNTYLHWYQQKPGQAPRLLIYKVSNRFSGVPDRFSGSGSGTDFTLKISRVEAEDVGVYYCGQGTQVPYTFGQGTKLEIKRTVAAPSVFIFPPSDEQLKSGTASVVCLLNNFYPREAKVQWKVDNALQSGNSQESVTEQDSKDSTYSLSSTLTLSKADYEKHKVYACEVTHQGLSSPVTKSFNRGEC
# B5: GLS3000 S25M one-arm antibody (antibody, human IgG1, kappa, L234A L235A, N297A, name in Kabat numbering)
# heavy: QVQLVESGGGVVQPGRSLRLSCAASGFTFSNAWMHWVRQAPGKGLEWVAQIKAKSNNYATYYAESVKGRFTISRDDSKNSLYLQMNSLKTEDTAVYYCRYVHYGAYYGVDAWGQGTTVTVSSASTKGPSVFPLAPSSKSTSGGTAALGCLVKDYFPEPVTVSWNSGALTSGVHTFPAVLQSSGLYSLSSVVTVPSSSLGTQTYICNVNHKPSNTKVDKKVEPKSCDKTHTCPPCPAPEAAGGPSVFLFPPKPKDTLMISRTPEVTCVVVDVSHEDPEVKFNWYVDGVEVHNAKTKPREEQYASTYRVVSVLTVLHQDWLNGKEYKCKVSNKALPAPIEKTISKAKGQPREPQVYTLPPSRCELTKNQVSLSCAVKGFYPSDIAVEWESNGQPENNYKTTPPVLDSDGSFFLVSKLTVDKSRWQQGNVFSCSVMHEALHNHYTQKSLSLSPDYKDDDDK
# chain: EPKSSDKTHTCPPCPAPELLGGPSVFLFPPKPKDTLMISRTPEVTCVVVDVSHEDPEVKFNWYVDGVEVHNAKTKPREEQYNSTYRVVSVLTVLHQDWLNGKEYKCKVSNKALPAPIEKTISKAKGQPREPQVCTLPPSRDELTKNQVSLWCLVKGFYPSDIAVEWESNGQPENNYKTTPPVLDSDGSFFLYSKLTVDKSRWQQGNVFSCSVMHEALHNRYTQKSLSLSP
# light: DIVMTQSPLSLPVTPGEPASISCRMSQSLVHSNRNTYLHWYQQKPGQAPRLLIYKVSNRFSGVPDRFSGSGSGTDFTLKISRVEAEDVGVYYCGQGTQVPYTFGQGTKLEIKRTVAAPSVFIFPPSDEQLKSGTASVVCLLNNFYPREAKVQWKVDNALQSGNSQESVTEQDSKDSTYSLSSTLTLSKADYEKHKVYACEVTHQGLSSPVTKSFNRGEC
# B6: GLS3000 S25L one-arm antibody (antibody, human IgG1, kappa, L234A L235A, N297A, name in Kabat numbering)
# heavy: QVQLVESGGGVVQPGRSLRLSCAASGFTFSNAWMHWVRQAPGKGLEWVAQIKAKSNNYATYYAESVKGRFTISRDDSKNSLYLQMNSLKTEDTAVYYCRYVHYGAYYGVDAWGQGTTVTVSSASTKGPSVFPLAPSSKSTSGGTAALGCLVKDYFPEPVTVSWNSGALTSGVHTFPAVLQSSGLYSLSSVVTVPSSSLGTQTYICNVNHKPSNTKVDKKVEPKSCDKTHTCPPCPAPEAAGGPSVFLFPPKPKDTLMISRTPEVTCVVVDVSHEDPEVKFNWYVDGVEVHNAKTKPREEQYASTYRVVSVLTVLHQDWLNGKEYKCKVSNKALPAPIEKTISKAKGQPREPQVYTLPPSRCELTKNQVSLSCAVKGFYPSDIAVEWESNGQPENNYKTTPPVLDSDGSFFLVSKLTVDKSRWQQGNVFSCSVMHEALHNHYTQKSLSLSPDYKDDDDK
# chain: EPKSSDKTHTCPPCPAPELLGGPSVFLFPPKPKDTLMISRTPEVTCVVVDVSHEDPEVKFNWYVDGVEVHNAKTKPREEQYNSTYRVVSVLTVLHQDWLNGKEYKCKVSNKALPAPIEKTISKAKGQPREPQVCTLPPSRDELTKNQVSLWCLVKGFYPSDIAVEWESNGQPENNYKTTPPVLDSDGSFFLYSKLTVDKSRWQQGNVFSCSVMHEALHNRYTQKSLSLSP
# light: DIVMTQSPLSLPVTPGEPASISCRLSQSLVHSNRNTYLHWYQQKPGQAPRLLIYKVSNRFSGVPDRFSGSGSGTDFTLKISRVEAEDVGVYYCGQGTQVPYTFGQGTKLEIKRTVAAPSVFIFPPSDEQLKSGTASVVCLLNNFYPREAKVQWKVDNALQSGNSQESVTEQDSKDSTYSLSSTLTLSKADYEKHKVYACEVTHQGLSSPVTKSFNRGEC
# Target: T1, CD3ε homodimer protein (human, UniProt P07766 23-126, limits assumed)
# T1 construct: also called CD3 (CD3ε)
# T1 sequence (P07766 23-126 limits assumed): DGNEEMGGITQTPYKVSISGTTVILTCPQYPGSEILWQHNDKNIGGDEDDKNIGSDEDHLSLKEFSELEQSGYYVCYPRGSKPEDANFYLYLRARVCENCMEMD
# Test: SPR Biacore T200, CD3ε homodimer on chip;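 note: Light-chain single-residue variant antibodies injected over amine-coupled CD3ε homodimer on a CM4 chip at 25 °C, bound amount divided by that of the GLS3000-containing antibody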
# Protocol: Each one-amino acid altered form constructed, expressed, and purified in the paragraph (6-2) was evaluated using Biacore T200 (GE Healthcare Japan Corp.). An appropriate amount of CD3ε homodimer protein was immobilized onto Sensor chip CM4 (GE Healthcare Japan Corp.) by the amine coupling method. Then, the antibody having an appropriate concentration was injected thereto as an analyte and allowed to interact with the CD3ε homodimer protein on the sensor chip. Then, the sensor chip was regenerated by the injection of 10 mmol/L glycine-HCl (pH 1.5). The assay was conducted at 25° C., and HBS-EP+ (GE Healthcare Japan Corp.) was used as a running buffer. […] Each parameter was calculated using Biacore T200 Evaluation Software (GE Healthcare Japan Corp.).
# Specifically, when the amount of the GLS3000-containing antibody bound was defined as X and the amount of the L chain one-amino acid altered form bound was defined as Y, a value of Z (ratio of amounts bound)=Y/X was used.
row,Binder,ratio of amount bound vs unaltered GLS3000
1,B1,0.21
2,B2,0.83
3,B3,0.53
4,B4,1.01
5,B5,0.31
6,B6,0.24
